The text below walks through data of FireProtDB (doi:10.1073/pnas.84.13.4441).

The chains are these.
B1: Tryptophan synthase alpha chain, P0A877 (parent)
chain: MERYESLFAQLKERKEGAFVPFVTLGDPGIEQSLKIIDTLIEAGADALELGIPFSDPLADGPTIQNATLRAFAAGVTPAQCFEMLALIRQKHPTIPIGLLMYANLVFNKGIDEFYAQCEKVGVDSVLVADVPVEESAPFRQAALRHNVAPIFICPPNADDDLLRQIASYGRGYTYLLSRAGVTGAENRAALPLNHLVAKLKEYNAAPPLQGFGISAPDQVKAAIDAGAAGAISGSAIVKIIEQHINEPEKMLAALKVFVQPMKAATRS

Variants of B1 are the subject of the series. The settings on record: Escherichia coli (strain K12), 25 °C, GdnHCl, CD, Potassium phosphate 20 mM, reversible: yes, structure 1WQ5, whole UniProt chain shown.

For the variant E49S, under “pH 7”, the “ddG of mutation (higher = less stable)” value was determined as 0.59 kcal/mol and the unfolding free energy was 17.6 kcal/mol. Besides, under “pH 9”, the “ddG of mutation (higher = less stable)” value was -0.09 kcal/mol and the unfolding free energy stood at 18.1 kcal/mol.
Consider E49Y, for which, where the note is “pH 7”, the “ddG of mutation (higher = less stable)” value is 0.17 kcal/mol and the unfolding free energy is 18 kcal/mol. Where the note is “pH 9”, the “ddG of mutation (higher = less stable)” value is -0.26 kcal/mol and the unfolding free energy worked out at 18.2 kcal/mol.
With E49W, under “pH 7”, the “ddG of mutation (higher = less stable)” value stood at 0.97 kcal/mol and the unfolding free energy was determined as 17.2 kcal/mol. Where the note is “pH 9”, the “ddG of mutation (higher = less stable)” value came to 1.1 kcal/mol and the unfolding free energy came out at 16.9 kcal/mol.
As to E49V, under “pH 7”, the “ddG of mutation (higher = less stable)” value was -0.14 kcal/mol and the unfolding free energy is 18.3 kcal/mol.
As for E49T, for the setting “pH 7”, the “ddG of mutation (higher = less stable)” value turned out to be 0.62 kcal/mol and the unfolding free energy is 17.5 kcal/mol. In addition, for the setting “pH 9”, the “ddG of mutation (higher = less stable)” value is 0.26 kcal/mol and the unfolding free energy was 17.7 kcal/mol.
With E49N, under “pH 9”, the “ddG of mutation (higher = less stable)” value is -0.27 kcal/mol and the unfolding free energy was 18.2 kcal/mol.
